± gives the uncertainty stated by the source.
experiment: amyloid nucleation score (Sup35N fusion, yeast selection) (log enrichment); library NNK3; higher = more nucleation; inactive = no reads after selection
Outline: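 Growth for 7 days at 30°C on medium lacking adenine and uracil followed a 24-hour induction with 100 μM copper sulfate of psi-negative yeast expressing peptides of 20 random codons fused to Sup35N. Input and output plasmid inserts were sequenced with Illumina, and sequences with under 100 input reads were excluded. Nucleation score is the DiMSum log enrichment of output over input reads, centred on the mode score of non-aggregating sequences.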

Substance | amyloid nucleation score
SEYFWLVWPSA | inactive
SFCGLYVKFSVGYVVLIWGS | inactive
SFDARCGWKLNMFYSCSFIQ | -0.009 ± 0.81
SFDVLSRV | inactive
SFESVVYYSWRFVAKFKFWT | inactive
SFHTHRGYNG | inactive
SFHTSGSNKGYCCGVMWMDK | inactive
SFITIVIVSVGMRSLVLHRL | inactive
SFLRTVNGGRFSSVCSL | inactive
SFNFCLFASLSALCMTRVEF | inactive
SFNNACVFYMNSWLRWRI | 1.96 ± 0.083
SFNRISIFYVNWCTAMNFVY | 1.13 ± 0.093
SFRFWSFYTCGEYKWDGTKG | inactive
SFRMSTSCWSSGALMYRLYR | inactive
SFRRLDGNRNLFSSCRVNGL | inactive
SFSCMKDSGPNMCKGLRVKQ | inactive
SFSIDLMTSLSWHLLSCRTF | inactive
SFSSFVFTMEALASAVSTHH | inactive
SFTAYVASLA | -0.151 ± 1.1
SFTRCWLNKREMKMYTFSAR | inactive
SFYYILYTGCVIGIVASLFK | -0.408 ± 0.58
SGCERAWMAVCENRSSCILG | inactive
SGDPSSLEDIGFVIYWRIYI | inactive

Substance | amyloid nucleation score
SGFYSLIVYNGFERALFVGS | inactive
SGKGKCVYNVLRQGFFSKMS | inactive
SGKILQRPLSWLSCVMQVES | inactive
SGLDFAYLDECSREGSVYAG | inactive
SGLRASSSVMSCAYLTISWN | inactive
SGQNKEQVVWMCTVRLPESS | inactive
SGSAELARLHYRMELKAPYL | inactive
SGTFYANVWFRFISFGWYLR | inactive
SHCVSTT | inactive
SHGGYACTSLIMTLIPLLYM | inactive
SHGHDSVTRNRQGPCGIRIY | inactive
SHIFCSFFKSSYLNSGWQHG | inactive
SHKFMRCGPQMASGCNWELA | inactive
SHPYLT | 0.071 ± 0.35
SHVLWDGTWEVGGGGHKA | inactive
SHVNRVRSLYVGE | inactive
SIDLNGKG | inactive
SIFLGLRSRQLSFISLLEDG | inactive
SIFMCNIVLFKRVVLPRGAS | 0.886 ± 0.18
SILLIFCLSKTRFSVMSFLP | inactive
SIMREMWWSDTLFGGMNRFW | 0.992 ± 0.11
SIMYFVTNGCGNGC | 1.79 ± 0.086
SIPLLTQMWTVNGNRRWQTA | inactive

Substance | amyloid nucleation score
SIRNFVTSENTVLSDIKPWR | inactive
SISYINRKHTRNDTPRLRGV | inactive
SIWEHRSNS | inactive
SIYFWCS | 2.09 ± 0.065
SKCVGISLRALVYYGHSQVT | inactive
SKFFQQPWL | inactive
SKIFSCYVVLKSMLTDPGVA | inactive
SKLCELLSLQTAVAYMMSGA | inactive
SKLHAE | inactive
SKTGLDMADMIKRGDCGEST | inactive
SKVRICKDKGWSG | inactive
SKVWRYI | inactive
SKYKVCFTRSFF | inactive
SLCLYNSFLSSL | inactive
SLCRRWVNLDTGSPYGTL | inactive
SLDCARNFRFGQTVFCCVGY | 1.21 ± 0.18
SLDFSSGDVKNLKCCNVLMK | inactive
SLDLALNMFFFLYAGSNFFF | inactive
SLEIEK | inactive
SLGLKIVVLESYGVSPVCCH | inactive
SLGSCFSTCAVVHQRMKLGG | inactive
SLGTIMFVCGGPRGHLCSVR | -0.414 ± 1.4
SLIGNSDSPWFLRQTCTYTK | inactive

Substance | amyloid nucleation score
SLKLRCLLGTSKVVMVDLFV | inactive
SLLCNHFPGHI | inactive
SLLGSRNRRSGWTQFVKLVW | inactive
SLLMYCRNTVSMSNNLSRHR | 1.39 ± 0.11
SLLSIFVKGARLQISDVSQG | 0.773 ± 0.18
SLMDNVLSFHFVVANWNTLD | inactive
SLMSSRSCVTRTLLARQVYL | inactive
SLNCDGSSDGRCAAYQIWLC | inactive
SLNLEENLSFHGVCRMYFNE | inactive
SLNLWGLRSKVPDVWRMLMR | inactive
SLPACKSGVKNTYVLYLTWN | 1.19 ± 0.11
SLPGSKYKAFH | inactive
SLRDVVV | inactive
SLRYGREIKNMRQNCIDPWC | inactive
SLSSWLWVVLIVHCMSGRNS | inactive
SLTGLVILMAYRDPPGLAQF | 1.46 ± 0.13
SLTYGRRWLFDWRSTMKGKA | inactive
SLWIIERCILDHQYGSFRRQ | 1.65 ± 0.1
SLYHSLSGYHFCISMLL | inactive
SLYRSEVMVHAVVVYVYFGK | inactive
SLYWSAMRKYNVVRTIYSRW | inactive
SMCDMYYLVACTPHMIVQLY | -0.111 ± 0.69
SMDTE | 0.734 ± 0.17

Substance | amyloid nucleation score
SMFNGNLSRSMWFWRVRVTP | inactive
SMGTFNMVRLSGTWGMSAMY | 0.757 ± 0.15
SMSGWCVETFLRQEM | inactive
SMSIYPVCLTF | inactive
SMSSTSYIGSSLVMIARNKF | inactive
SMSWRSHEAMCTGSYFNLCD | inactive
SMYIIMVCSSVSCWYFNRGH | 0.94 ± 0.18
SNACCGWAICCSPCGGKGVS | 1.45 ± 0.13
SNAKWGNISVGSRDYRTIRS | 1.48 ± 0.083
SNANKCGRMFEMKYRHNLCL | inactive
SNCNPEWQLLIMIDCYNYAL | inactive
SNCTLRE | inactive
SNDVKNVHP | inactive
SNFINVGSRLMTSWRGYAYM | inactive
SNGCKMYDKHVLYW | inactive
SNIVFVPRSLQRREDGRRMD | inactive
SNLRMRKNGVVDDIWPDERL | -0.802 ± 1.3
SNLVDGMSWHHFKERIVMLD | inactive
SNRGYTKRYF | inactive
SNSHWIYWYTNPGQHRPSHR | inactive
SNSSYWRICRLETCNPVGYK | inactive
SNVSVHGMIESMLWLSTRDI | inactive
SNWECLGGHENGINCRDI | inactive

Substance | amyloid nucleation score
SNYSV | inactive
SPALQMWKACTWLNRTLSPV | 0.582 ± 0.15
SPDTVPIGGSSGTNVYLCMH | inactive
SPEPSVNRKHLVPLLPAAFE | inactive
SPFFYFFWPGFR | inactive
SPKAVSCNTFPIGYRISFFL | inactive
SPRAFTASVEGVSEL | inactive
SPRNMWI | inactive
SPYNPHAFVTYSFCVYKD | 1.88 ± 0.098
SQKGCRH | inactive
SQPDCFNICDLHGRSSCVSK | inactive
SQWWNVDPRSTQCASGAMRC | inactive
SRCNIFGRPSASIAR | inactive
SRCNVYKKVVAYVLRRLTPE | 0.166 ± 0.66
SRCWVYRKRTPCNVY | inactive
SRFKMICSRDRLNNRSVVLG | inactive
SRFRFMGNVRQFLQPYRRLH | 0.347 ± 0.2
SRFRGAI | inactive
SRFYTL | inactive
SRNVGFGINSQQGLFFRVVV | inactive
SRNYLVSPIDAPEQQSCVEE | inactive
SRPLEMVLLLSWWIMSRKIP | inactive
SRQPRCALVVDVPP | inactive

Substance | amyloid nucleation score
SRRFTLPGGSMFTEVLM | inactive
SRRYFYIDIRYRNIKP | inactive
SRSIMSVLACHRMCERGPIW | 0.827 ± 0.19
SRSINCFPMLILLVL | inactive
SRSLIRINWFRGKKLCYGFE | inactive
SRSLWTLNIVFRHDCYTGKL | -0.05 ± 0.57
SRSNQNCLPSASMNVYLSVT | inactive
SRTYKHKALAQFPYKYWCVP | inactive
SRVNFM | inactive
SSDNIVSGWWALSNKSATFV | inactive
SSDTGRCIKVDALRCRMGSR | inactive
SSFLKQLLGSVVNSVNVATV | inactive
SSFNIPMPSNYPKMIDLLFT | inactive
SSGKFIVLGRNAWTLAWTLT | inactive
SSGLFLSISLNDGWSRGVWS | 2.77 ± 0.076
SSGPIRLERMDYWHHWGATL | inactive
SSGRSSPQWG | inactive
SSGYAFTGKVFYC | inactive
